Measured values as given in the RNAGym collection of RNA variant scans (doi:10.7554/elife.80360).

B1: HDV Ribozyme (parent)
chain: GGCCGGCAUGGUCCCAGCCUCCUCGCUGGCGCCGGCUGGGCAACAUUCCGAGGGGACCGUCCCCUCGGUAAUGGCGAAUGGGACCCA

Variants of: B1
Assay: self-cleavage, relative activity (ratio to wild type); higher = more cleavage; co-transcriptional

First: GGCCGGCAUGGUCCCAGCCUCCUCGCUGGCGACGGCUGGGCAACAUUCCGAGGGGACCGUCCUCUCGGUAAUGGCGAAUGGGACCCA
Second: GUCCGGCAUAGUCCCAGCCUCCUCGCUGGCGCCGGCUGGGCAACAUUCCGAGGGGACCGUCCCCUCGGUAAUGGCGAAUGGGACCCA
The self-cleavage of the first is higher: 0.332 for the first, 0 for the second.

Compared with GGCCGGCAUGGUCCCAGACUCCUCGCUGGCGCCGGCUGGGCAACAUUCCGAGGGGACCGUCCCCUCGGUAAUGGAGAAUGGGACCCA, GGCCGGCAUGGUCCCAGCCUCCUCGCUGGCGCCGGCUGGGCAACAUUCCGAGGGGACCGUCUCCUCGGUAAUGGCGAAUGGGACCCG is higher in self-cleavage: 0.0906 for the first, 1.05 for the second.

Going from GGCCGGCAUGGUCCCAGCCUCCUCGCUGGCGCCGGCUGGGCAACAUUCCGAGGGGACCGUCCCCUCGGUAAUGGCGAGUGGGACCCG to GGCCGGCAUGGUCCCAGCCUCCUCGCUGGCGCCGCCUGGGCAACAUUCCGAGGGGACCGUCCCCUCGGUAAUGGCGAAUGGGCCCCA, the self-cleavage falls from 0.658 to 0.162.

Compared with GGCCGGCAUGGUCCCAGCCUCCUCGCUGGCGCCGGCUGGGCAACACUCCGAGGGGACCGUCCCCACGGUAAUGGCGAAUGGGACCCA, GGCCGGCAUAGUCCCAGCCUCCUCGCUGGCGCCGGCUGGGCAAUAUUCCGAGGGGACCGUCCCCUCGGUAAUGGCGAAUGGGACCCA is lower in self-cleavage: 0.853 for the first, 0.463 for the second.

First: GGCCGGCCUGGUCCCAGCCUCCUCGCUGGCGCCGGCUGGGCAACAUUCCGAGGGGACUGUCCCCUCGGUAAUGGCGAAUGGGACCCA
Second: GGCCGGCAUGGUCCCAGCCUCCUCGCUGGCGCCAGCUGGGCAACAUUCCGAGGGGACCGUCCCCUCGGUAAUGGCGAAUGGGACCAA
The self-cleavage of the first is higher: 0.831 for the first, 0.0683 for the second.

Compared with GGCCGGCAUGGUCCCAGGCUCCUCGCUGGCGCCGGCUGGGCAACAUUCCGAGGGGACCGUCCCCUCGGUAAUGGCGAAUGGCACCCA, GGCCGGCAUGGUCCCAGCCUCCUCGCUGACGCCGGCUGGGCAACAUUCCGAGGGGACCGUCCCCUCGGUAAUGGCGAAUGAGACCCA is higher in self-cleavage: 0 for the first, 0.138 for the second.

Compared with GGCCGGCAUGGUCCCAGCAUCCUCGCUGGAGCCGGCUGGGCAACAUUCCGAGGGGACCGUCCCCUCGGUAAUGGCGAAUGGGACCCA, GGCCGGCAUGGUCCCAGCCUCCUCGCUGGCGCCGGCUUGGCAACAUUCCGAGGGGACCGUCCCCUCGGUAAUGACGAAUGGGACCCA is lower in self-cleavage: 0.0357 for the first, 0.0248 for the second.

Compared with GGCCGGCAUCGUCCCAGCCUCCUCGCUGGCGCCGGCUGGGCAACAUUCCGAGGGGACCGUCCACUCGGUAAUGGCGAAUGGGACCCA, GGCCGGCAUGGGCCCAGCCUCCUCGCUGGCGCCGGCCGGGCAACAUUCCGAGGGGACCGUCCCCUCGGUAAUGGCGAAUGGGACCCA is lower in self-cleavage: 0.88 for the first, 0.692 for the second.

Going from GGCCGGCAUGGUCCCAGCCUCCUCGCUGGCGCCGGCUGGGCAACAUUCCGAGCGGUCCGUCCCCUCGGUAAUGGCGAAUGGGACCCA to GACCGGCAUGGUCCCAGCCUCCUCGAUGGCGCCGGCUGGGCAACAUUCCGAGGGGACCGUCCCCUCGGUAAUGGCGAAUGGGACCCA, the self-cleavage falls from 1.11 to 0.216.

Going from GGGCGCCAUGGUCCCAGCCUCCUCGCUGGCGCCGGCUGGGCAACAUUCCGAGGGGACCGUCCCCUCGGUAAUGGCGAAUGGGACCCA to GGCCGCCAUGGUCCCAGCCUCCUCGCUGGCACCGGCUGGGCAACAUUCCGAGGGGACCGUCCCCUCGGUAAUGGCGAAUGGGACCCA, the self-cleavage rises from 0.0475 to 0.277.

First: GGCCGGCAUGGGCCCAGCCUCCUCGCUGGCGCCGGCUGGUCAACAUUCCGAGGGGACCGUCCCCUCGGUAAUGGCGAAUGGGACCCA
Second: GGCCGGCAUGGUCCCAGCCUCCUCGCUGGCCCCCGCUGGGCAACAUUCCGAGGGGACCGUCCCCUCGGUAAUGGCGAAUGGGACCCA
The self-cleavage of the first is higher: 0.655 for the first, 0.0396 for the second.

Going from GGCCGGCAUGGUCCCAGCCUCCUCGCUGGCGCCGGCGGGGCAACAUUCCGAGGGGACCGUCCCCUCGGUAAUGGCGAAAGGGACCCA to GGCCGGCAUGGUCCCAGCCUCCUCGCUGGCGCAGGCUGGGCAACAUACCGAGGGGACCGUCCCCUCGGUAAUGGCGAAUGGGACCCA, the self-cleavage rises from 0 to 0.0378.

Going from GGCCGGCAUGUUCCCAGCCUCCUCGCUGGCGCCGGCUGGGCAAAAUUCCGAGGGGACCGUCCCCUCGGUAAUGGCGAAUGGGACCCA to GCCCGGCAUGGUCCCAGCCUCCUCGCUGGCGCCGGCUGGGCAACAUUCCGAUGGGACCGUCCCCUCGGUAAUGGCGAAUGGGACCCA, the self-cleavage falls from 0.256 to 0.032.

Going from GGCCGGCAUGGUCCCAGCCUCCUCGCUGGCGCCGGCUGGGCGACAUUCCGAGUGGACCGUCCCCUCGGUAAUGGCGAAUGGGACCCA to GGCCGGCAUGGUCCCAGCCUCCUCUCUGGCGCCGGCUGGGCAACAUUCCGAGGGGACCGUCCCCUCGGUAAUGGCGAAUGGGCCCCA, the self-cleavage falls from 0.817 to 0.0386.

Going from GGCCGGCCUGGUCCCAGCCUCCUCGCUGGCGCCGGCUGGGCAACAUUCCGAGGGGACCGUCCCCUCGGUAAUGACGAAUGGGACCCA to GGCCGGCAUGGUCCCAGCCUCCUCGCUGGCGCCGGCUGGGCACCAUUCCGAGCGGACCGUCCCCUCGGUAAUGGCGAAUGGGACCCA, the self-cleavage rises from 0.314 to 0.63.

First: GGCCGGCAUGGUCCCAGCCUCCUCGCUGGCGCCGGCUGGGCAACAUUCCGAGGGGACCGUCCCCUCGGUAAUUGCGAAGGGGACCCA
Second: GGCCGGCAUGGUCCCAGCCUCCUCGCUGGCGCCGGCUGGGCAACAUUGCGAGGAGACCGUCCCCUCGGUAAUGGCGAAUGGGACCCA
The self-cleavage of the first is higher: 0.374 for the first, 0.372 for the second.

First: GGCCGGCAUGGUCCCAGCCUCCUCGCUGGCGCCGGCUGGGCAACAUUCCGAGGGGAACGUCCCCUCGGUAAUGGCGAAUGGGACACA
Second: GGCCGGCAUGGUCCCAGCCUCCUCGCUGGCGCCGGCUGGGCAACAUCCCGAGGGGACCGUCCCCUCGGUAAUGGCGAAUGCGACCCA
The self-cleavage of the first is higher: 1.05 for the first, 0.151 for the second.

Going from GGCCGGCAUGGUCCCAGCCUCCUCGCUGGCGCCGGCUGGGCAACAUUCCGAGGGGACCGUCCCCUCGGUAGUGGCCAAUGGGACCCA to GGCCGGCAUGGUCCCAGCCUCCUCGCUGGCGCCGGCUGGGCAACGUUCCGAGGGGACCGUCCCCUUGGUAAUGGCGAAUGGGACCCA, the self-cleavage rises from 0.73 to 0.92.

Compared with GGCCGGCAUGGUCCCAGCCUCCUCGCUCGCGCCGGCUGGGCAACAAUCCGAGGGGACCGUCCCCUCGGUAAUGGCGAAUGGGACCCA, GGCGGGCAUGGUCCCAGGCUCCUCGCUGGCGCCGGCUGGGCAACAUUCCGAGGGGACCGUCCCCUCGGUAAUGGCGAAUGGGACCCA is lower in self-cleavage: 0.107 for the first, 0.0282 for the second.

Going from GGCCGGCAUGGUACCAGCCUCCUCGCUGGCGCCGGCUGGGCAACAUUCCGAGGGGACCGUCCCCUCGGUAAUGGCGAAGGGGACCCA to GGCCGGCAUGGUCCCAGCCUCCUCGCUGGCGCCGGCUAGGCAACAUUCCGAGGGGACCGUCCCCUCGAUAAUGGCGAAUGGGACCCA, the self-cleavage rises from 0.151 to 0.21.

Compared with GGCCGGCAUGGUCCCAGCCUCCUCGCUGGCGACGGCUGGGCAACACUCCGAGGGGACCGUCCCCUCGGUAAUGGCGAAUGGGACCCA, GGCCGGCAUGAUCCCAGCCUCCUCGCUGGCGCCGGCUGGGCAACAUUCCGAGGGGACCGUCCCAUCGGUAAUGGCGAAUGGGACCCA is higher in self-cleavage: 0.128 for the first, 0.475 for the second.

Going from GGCCGGCAUGGUCCCAGCCUCCUCGCUGGCGCCGGCUGGGCAACAUUCCGAGGGGACCGUCCCCCCGGUAACGGCGAAUGGGACCCA to GGCCGGCAUGGUCCCAGCCUCCUCGCUGGCGCCGGCUGGGCAACAUUCCGAGGGGACCGUCCCCUCGGUAAUGGCGAGUGGGCCCCA, the self-cleavage falls from 0.609 to 0.128.

Going from GGCCGGCAUGGUCCCAGCCUACUCGCUGGCGCCGGCUGGGCAACAUUCCGAGGGCACCGUCCCCUCGGUAAUGGCGAAUGGGACCCA to GGCCGGCAUGGUCCCAGCCGCCUCGCUGGCGCCGGCUGGGCAACAUUCCGAGAGGACCGUCCCCUCGGUAAUGGCGAAUGGGACCCA, the self-cleavage rises from 0.13 to 0.148.

Compared with GGCCGGCAUGGUCCCAGCCUCCUCGCUGGCGCCGGCUGGGCAACAUUCCGAGGGGUCCGUCCCCUCGGUAAUGGCGAAUGGUACCCA, GGCCGGCAUGGUCUCAGCCUCGUCGCUGGCGCCGGCUGGGCAACAUUCCGAGGGGACCGUCCCCUCGGUAAUGGCGAAUGGGACCCA is lower in self-cleavage: 0.462 for the first, 0.155 for the second.

Going from GGCCGGCAUGGUCCCAGCCUCCUCGCUGGCGCCGGUUGGGCAACAUUCCGAGGGGACCGUCCCCUCGGUAAUGGCGAAUGUGACCCA to GGCCGGCAUGGUCCCAGCCUCCUCGCUGGCGCCGCCUGGGCAACAUUCCGAGGGGACCGUCCCCUCGGUAAUGGGGAAUGGGACCCA, the self-cleavage rises from 0.29 to 0.391.

Going from GGCCGGCAUGGUCCCAGGCUCCUCGCUGGCGCCGGCUGGGCAACAUUCCGAGGGGACCGUCCCCUCGGUAAUGGCGAAUGGGACGCA to GGCCGGCAUGGUCCCAGCCUCCUCGCUGGCGCCGGCUGGACAACAUUCCGAGGGGACCGUCCCCCCGGUAAUGGCGAAUGGGACCCA, the self-cleavage rises from 0 to 1.12.

First: GGCCGGCAUGGUCCAAGCCUCCUCGCUGGCGCCGGCUGGGCAACAUUCCGAGGGGACCGUCCCCUCGGUAAUAGCGAAUGGGACCCA
Second: GGCCGGCAUGUUCCCAGCCUCCUCGCUGGCGCCGGCUGGGCAACAUUCCGAGGGGACCGUCCCCUCGGUAAUGUCGAAUGGGACCCA
The self-cleavage of the first is higher: 0.283 for the first, 0.1 for the second.

First: GGCCGGCAUGGUCCCAGCCUCCUCGCUGGGGCCGGCUGGGCAACAUUCCGAGGGGACCGUCCCCUCGGUAAUGCCGAAUGGGACCCA
Second: GGCCGGCAUGGUCCCAGCCUCCUCGCUGGCGCCGGCUGGGCAACAUUCCGAGGGUACCGUCCCCUCGGUAAUGCCGAAUGGGACCCA
The self-cleavage of the first is lower: 0.108 for the first, 0.208 for the second.

First: GGCCGGCAGGGUACCAGCCUCCUCGCUGGCGCCGGCUGGGCAACAUUCCGAGGGGACCGUCCCCUCGGUAAUGGCGAAUGGGACCCA
Second: GGCCGGCAUGGUCCCAGCCUCCUCGCUGGCGCCUGCUGCGCAACAUUCCGAGGGGACCGUCCCCUCGGUAAUGGCGAAUGGGACCCA
The self-cleavage of the first is higher: 0.831 for the first, 0.111 for the second.

First: AGCCGGCAGGGUCCCAGCCUCCUCGCUGGCGCCGGCUGGGCAACAUUCCGAGGGGACCGUCCCCUCGGUAAUGGCGAAUGGGACCCA
Second: GGCCGGCAUGGUCCCCGCCUCCUCGCUGGCGCCGGCUGGGCAACAUUCCGAGGGGACCGUCCCCUCGGUAAUGGCGGAUGGGACCCA
The self-cleavage of the first is lower: 0.302 for the first, 0.831 for the second.

Compared with GGCCGGCAUGGUCCCAGCCUCCUCGCUGGCCCCGGCUGGGCAACAUUCCGAGGGGACCGUCCCCUCGGUAAUGGCGAAUGGGAGCCA, GGCCGGCAUGGUCCCAGCCUCCUCGCUGGCGCCGGCUGGGCAACAUUCCGAGGGGACCGUCUCCUCGGUAAUGGCGAAUGGGACCCA is higher in self-cleavage: 0.193 for the first, 0.994 for the second.

Going from GGCCGGCAUGUUCCCAGCCUCCUCGCUGGCGCCGGCUGGGCAACAUUCCGAGGGGACCGCCCCCUCGGUAAUGGCGAAUGGGACCCA to GGCCGGCCUGGUCCCAGCCUCCUCGCUGGCGCCAGCUGGGCAACAUUCCGAGGGGACCGUCCCCUCGGUAAUGGCGAAUGGGACCCA, the self-cleavage falls from 0.342 to 0.0475.
